Laboratory results: article doi:10.1101/2024.01.23.576890 (bioRxiv, 2024)

Biological target: native OspA on the surface of live B. burgdorferi B31 (Borrelia burgdorferi strain B31 …, UniProt P0CL66)
Test: flow cytometry on cells

Sequence of native OspA on the surface of live B. burgdorferi B31 (P0CL66 17-273): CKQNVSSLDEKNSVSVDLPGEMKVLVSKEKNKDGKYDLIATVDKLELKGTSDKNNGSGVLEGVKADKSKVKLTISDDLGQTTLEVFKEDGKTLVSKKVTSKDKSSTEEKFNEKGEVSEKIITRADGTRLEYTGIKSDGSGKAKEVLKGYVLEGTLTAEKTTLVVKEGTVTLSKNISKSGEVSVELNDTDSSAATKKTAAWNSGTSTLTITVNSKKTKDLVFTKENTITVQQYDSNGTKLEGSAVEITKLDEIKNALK

binding result: binds
B1: LA-2 (bin 3 OspA monoclonal antibody; chimeric LA-2 IgG1) (antibody, V domains shown)
VH: QIQLVQSGPELKKPGETVKISCKASGYTFTDYSMYWVKQAPGKGLKRMGWINTETGEPTYADDFKGRFALSLDTSASTAYLHISNLKNEDTATYFCARGLDSWGQGTSVTVSS
VL: DIQMTQSPSSLSATLGGKVTITCKASQDINKYIAWYQHKPGKGPRLLIHYTSTLQPGNPSRFSGSGSGRDYSFSISNLEAEDIAIYYCLQYDNLQRTFGGGTKVEIK
